{"source": "paper PMC6100724", "about": "“Proteome‐wide analysis of phospho‐regulated PDZ domain interactions” (Molecular Systems Biology, 2018)", "molecules": {"B1": {"name": "RPS6KA2 S730E: Flag‐tagged full-length RPS6KA2 phosphomimetic mutant expressed in HEK293 cells (protein)", "chain": "MDLSMKKFAVRRFFSVYLRRKSRSKSSSLSRLEEEGVVKEIDISHHVKEGFEKADPSQFELLKVLGQGSYGKVFLVRKVKGSDAGQLYAMKVLKKATLKVRDRVRSKMERDILAEVNHPFIVKLHYAFQTEGKLYLILDFLRGGDLFTRLSKEVMFTEEDVKFYLAELALALDHLHSLGIIYRDLKPENILLDEEGHIKITDFGLSKEAIDHDKRAYSFCGTIEYMAPEVVNRRGHTQSADWWSFGVLMFEMLTGSLPFQGKDRKETMALILKAKLGMPQFLSGEAQSLLRALFKRNPCNRLGAGIDGVEEIKRHPFFVTIDWNTLYRKEIKPPFKPAVGRPEDTFHFDPEFTARTPTDSPGVPPSANAHHLFRGFSFVASSLIQEPSQQDLHKVPVHPIVQQLHGNNIHFTDGYEIKEDIGVGSYSVCKRCVHKATDTEYAVKIIDKSKRDPSEEIEILLRYGQHPNIITLKDVYDDGKFVYLVMELMRGGELLDRILRQRYFSEREASDVLCTITKTMDYLHSQGVVHRDLKPSNILYRDESGSPESIRVCDFGFAKQLRAGNGLLMTPCYTANFVAPEVLKRQGYDAACDIWSLGILLYTMLAGFTPFANGPDDTPEEILARIGSGKYALSGGNWDSISDAAKDVVSKMLHVDPHQRLTAMQVLKHPWVVNREYLSPNQLSRQDVHLVKGAMAATYFALNRTPQAPRLEPVLSSNLAQRRGMKRLTETRL", "modifications": "left off: 3xFlag, end not stated, kept", "notes": "Flag‐tagged full-length RPS6KA2 phosphomimetic mutant expressed in HEK293 cells"}, "B2": {"name": "Flag‐tagged RPS6KA1: Flag‐tagged full-length wild-type RPS6KA1 expressed in HEK293 cells (protein, UniProt Q15418 1-735, looked up)", "chain": "MPLAQLKEPWPLMELVPLDPENGQTSGEEAGLQPSKDEGVLKEISITHHVKAGSEKADPSHFELLKVLGQGSFGKVFLVRKVTRPDSGHLYAMKVLKKATLKVRDRVRTKMERDILADVNHPFVVKLHYAFQTEGKLYLILDFLRGGDLFTRLSKEVMFTEEDVKFYLAELALGLDHLHSLGIIYRDLKPENILLDEEGHIKLTDFGLSKEAIDHEKKAYSFCGTVEYMAPEVVNRQGHSHSADWWSYGVLMFEMLTGSLPFQGKDRKETMTLILKAKLGMPQFLSTEAQSLLRALFKRNPANRLGSGPDGAEEIKRHVFYSTIDWNKLYRREIKPPFKPAVAQPDDTFYFDTEFTSRTPKDSPGIPPSAGAHQLFRGFSFVATGLMEDDGKPRAPQAPLHSVVQQLHGKNLVFSDGYVVKETIGVGSYSECKRCVHKATNMEYAVKVIDKSKRDPSEEIEILLRYGQHPNIITLKDVYDDGKHVYLVTELMRGGELLDKILRQKFFSEREASFVLHTIGKTVEYLHSQGVVHRDLKPSNILYVDESGNPECLRICDFGFAKQLRAENGLLMTPCYTANFVAPEVLKRQGYDEGCDIWSLGILLYTMLAGYTPFANGPSDTPEEILTRIGSGKFTLSGGNWNTVSETAKDLVSKMLHVDPHQRLTAKQVLQHPWVTQKDKLPQSQLSHQDLQLVKGAMAATYSALNSSKPTPQLKPIESSILAQRRVRKLPSTTL", "modifications": "full-length Flag tag", "notes": "Flag‐tagged full-length wild-type RPS6KA1 expressed in HEK293 cells"}}, "key": {"GST‐tagged Scribble PDZ1": {"test_system": "GST‐tagged Scribble PDZ1", "experiment": "GST-pulldown from HEK293 lysates with GST-tagged Scribble PDZ1", "assay_type": "binding, human", "details": "Flag‐tagged full-length protein over-expressed in HEK293 cells; anti‐Flag detection", "from_the_text": "(§1) pDONR223‐RPS6KA2 (Johannessen et al, 2010) was a gift from William Hahn & David Root (Addgene plasmid # 23530). The gene was PCR‐amplified introducing HindIII and EcoRI restriction sites along with the C‐terminal phosphomimetic (S730E) or phosphoinhibiting (S730A) mutations, or the PDZbm deletion (T731‐L733). pKH3‐human RSK1 was a gift from John Blenis (Addgene plasmid # 13841; Richards et al, 2001). The gene was PCR‐amplified introducing HindIII and EcoRI restriction sites, and a and PDZbm deletion (T733‐L735) was generated. The genes (wild type and mutants) were cloned into 3xFlag CMV‐10 vector and subjected to Sanger sequencing. […]\n(§2) The plasmids encoding 3xFlag RPS6KA2 wild type and mutants thereof, 3xFlag RPS6KA1 and mutants thereof, and GFP‐tagged full‐length human Scribble (Navarro et al, 2005) were Midipreped using PureLink HiPure Plasmid Midiprep Kit (Invitrogen). […] The membranes were immunoblotted with anti‐Flag (ab1162; Abcam), anti‐GFP (ab6556; Abcam), and anti‐actin (ab1801; Abcam) primary antibodies followed by HRP‐conjugated anti rabbit secondary antibody (Life technologies) and detected with Amersham ECL Western Blotting Detection Reagent (GE Healthcare), and exposed to high‐performance chemiluminescence film (Amersham Hyperfilm ECL; GE Healthcare) for 30–180 s and developed and fixed using GBX developer and fixer (Carestream Dental)."}, "[1]": {"test_system": "GFP‐tagged full‐length Scribble", "experiment": "Co-immunoprecipitation in HEK293 cells", "assay_type": "binding, human", "details": "transient expression in HEK293 cells; anti‐Flag beads; anti‐Flag and anti‐GFP detection", "from_the_text": "as §1, §2"}}}
{"molecule": "B1", "values": [{"measurement": "GST‐pulldown with GST‐tagged Scribble PDZ1", "setting": "GST‐tagged Scribble PDZ1", "result": "confirmed an interaction"}, {"measurement": "co‐IP with GFP‐tagged full‐length Scribble", "setting": "[1]", "result": "strong co‐IP"}]}
{"molecule": "B2", "values": [{"measurement": "GST‐pulldown with GST‐tagged Scribble PDZ1", "setting": "GST‐tagged Scribble PDZ1", "result": "interaction was further confirmed"}]}
